Source: patent US20050203288A1 (DEUTSCHES KREBSFORSCHUNGSZENTRUM STIFUNG DES OFFENTLICHEN …, published 2005)

B1: peptide number 65 (peptide, not shown: large carriers)
chain: GAGLGRVIRLRIVVLRCIFLLFRVLRSAEIYES
notes: that construct is not described for linear peptides
B2: peptide number 16 (peptide, not shown: large carriers)
chain: GPHSSAHDRIWLRVRGLRIILLVLRSAEIYES
notes: as for B1
B3: peptide number 90 (peptide, not shown: large carriers)
chain: GPYPYLRILLVQKIACVRRALWVLRSAEIYES
notes: as for B1
B4: peptide number 40 (peptide, not shown: large carriers)
chain: GSGCVRIRVGIVRRMLFLRFVFLVP
notes: as for B1
B5: peptide number 15 (peptide, not shown: large carriers)
chain: GSGCGCFVRGRIVRIRCVILLLRVLRSAEIYES
notes: as for B1
B6: peptide number 54 (peptide, not shown: large carriers)
chain: GPWWKDRGVLVRLCVLRLVVGVVLRSAEIYES
notes: Mammalian two-hybrid construct not described for linear peptides
B7: peptide number 77 (peptide, not shown: large carriers)
chain: GPFSEHARGHVVTICRLRLLFWLLRSAEIYES
notes: as for B1
B8: peptide number 5 (peptide, not shown: large carriers)
chain: GSRFRVFVCSLFSFLSGRGGGVVVLRSAEIYES
notes: as for B1
B9: peptide number 75 (peptide, not shown: large carriers)
chain: GSRCIRRRISILFFVFRVLRSRRVLRSAEIYES
notes: as for B1
B10: peptide number 69 (peptide, not shown: large carriers)
chain: GPFPFDYPRWIMIVLLRGVLRSAEIYES
notes: as for B1
B11: peptide number 7 (peptide, not shown: large carriers)
chain: GPFKRCHERLVAFARCWFMWSMVLRSAEIYES
notes: as for B1

Tests used:
Experiment in all cases: yeast two-hybrid
Livin-β = molecular target: T1, Livin-β (UniProt Q96CA5-2 1-280, limits assumed)
T1 construct: the beta isoform is meant; also called Livin (beta)
T1 sequence (looked up): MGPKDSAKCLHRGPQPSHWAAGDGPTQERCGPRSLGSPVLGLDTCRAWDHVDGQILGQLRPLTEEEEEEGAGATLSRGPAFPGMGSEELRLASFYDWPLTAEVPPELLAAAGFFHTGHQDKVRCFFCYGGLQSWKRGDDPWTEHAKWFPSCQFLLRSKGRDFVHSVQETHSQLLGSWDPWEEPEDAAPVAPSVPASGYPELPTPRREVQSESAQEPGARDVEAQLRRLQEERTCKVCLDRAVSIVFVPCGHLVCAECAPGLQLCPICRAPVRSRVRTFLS

c-IAP-1 = molecular target: T2, c-IAP-1 (UniProt Q13490 1-618, limits assumed)
T2 construct: construct not described

c-IAP-2 = molecular target: T3, c-IAP-2 (UniProt Q13489 1-604, limits assumed)
T3 construct: construct not described; also called c-LAP-2

XIAP = molecular target: T4, XIAP (UniProt P98170 1-497, limits assumed)
T4 construct: construct not described

Survivin = molecular target: T5, Survivin (UniProt O15392 1-142)
T5 construct: construct not described; also called surivin
T5 sequence (O15392 whole entry): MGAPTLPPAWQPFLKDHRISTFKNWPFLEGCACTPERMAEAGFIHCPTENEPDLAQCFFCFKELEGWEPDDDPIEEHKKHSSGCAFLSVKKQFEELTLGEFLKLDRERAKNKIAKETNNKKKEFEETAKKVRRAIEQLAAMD

T3 sequence (Q13489 whole entry): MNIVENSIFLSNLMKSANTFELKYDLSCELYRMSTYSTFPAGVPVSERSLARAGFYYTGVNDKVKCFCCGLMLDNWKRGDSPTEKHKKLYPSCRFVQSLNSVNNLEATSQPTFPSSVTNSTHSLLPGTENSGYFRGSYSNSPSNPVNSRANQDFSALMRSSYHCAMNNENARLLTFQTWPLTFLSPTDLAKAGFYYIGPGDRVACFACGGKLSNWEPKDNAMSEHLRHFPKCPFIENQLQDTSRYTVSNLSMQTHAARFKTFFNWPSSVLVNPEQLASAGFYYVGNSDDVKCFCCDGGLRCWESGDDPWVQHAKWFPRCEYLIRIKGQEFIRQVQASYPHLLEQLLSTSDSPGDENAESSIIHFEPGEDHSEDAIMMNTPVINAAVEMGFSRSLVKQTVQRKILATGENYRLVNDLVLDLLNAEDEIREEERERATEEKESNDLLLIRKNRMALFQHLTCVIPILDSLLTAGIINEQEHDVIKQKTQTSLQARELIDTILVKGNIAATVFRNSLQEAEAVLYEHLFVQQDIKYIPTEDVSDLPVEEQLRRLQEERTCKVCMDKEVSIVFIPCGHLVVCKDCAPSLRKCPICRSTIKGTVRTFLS
T4 sequence (P98170 whole entry): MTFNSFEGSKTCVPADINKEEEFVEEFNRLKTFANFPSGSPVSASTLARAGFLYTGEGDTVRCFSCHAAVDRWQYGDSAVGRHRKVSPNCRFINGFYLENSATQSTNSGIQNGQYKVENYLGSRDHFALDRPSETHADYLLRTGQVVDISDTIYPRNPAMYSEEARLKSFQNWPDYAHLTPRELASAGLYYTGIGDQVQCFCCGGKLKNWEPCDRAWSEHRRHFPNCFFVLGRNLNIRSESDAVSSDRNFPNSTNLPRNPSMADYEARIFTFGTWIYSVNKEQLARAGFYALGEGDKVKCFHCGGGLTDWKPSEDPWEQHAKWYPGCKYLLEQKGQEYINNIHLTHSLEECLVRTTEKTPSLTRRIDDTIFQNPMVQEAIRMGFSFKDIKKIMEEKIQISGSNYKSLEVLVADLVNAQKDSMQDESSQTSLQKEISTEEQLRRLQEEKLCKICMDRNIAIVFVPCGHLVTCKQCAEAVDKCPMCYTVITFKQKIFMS
T2 sequence (Q13490 whole entry): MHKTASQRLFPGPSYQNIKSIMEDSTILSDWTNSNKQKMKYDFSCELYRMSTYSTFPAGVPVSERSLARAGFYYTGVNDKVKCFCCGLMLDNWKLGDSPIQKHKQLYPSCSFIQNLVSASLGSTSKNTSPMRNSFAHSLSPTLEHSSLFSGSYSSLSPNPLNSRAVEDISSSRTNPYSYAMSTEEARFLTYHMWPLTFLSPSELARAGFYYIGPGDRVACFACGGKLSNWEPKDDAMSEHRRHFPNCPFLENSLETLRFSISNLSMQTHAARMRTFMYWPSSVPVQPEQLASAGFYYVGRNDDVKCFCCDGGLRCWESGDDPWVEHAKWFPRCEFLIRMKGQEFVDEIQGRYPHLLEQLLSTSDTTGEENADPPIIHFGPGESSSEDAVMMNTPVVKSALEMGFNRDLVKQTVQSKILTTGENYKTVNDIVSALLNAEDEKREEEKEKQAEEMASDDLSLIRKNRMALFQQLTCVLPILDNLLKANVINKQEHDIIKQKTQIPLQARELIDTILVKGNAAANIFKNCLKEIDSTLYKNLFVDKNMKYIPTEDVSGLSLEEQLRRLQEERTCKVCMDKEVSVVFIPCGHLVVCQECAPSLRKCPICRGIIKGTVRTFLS

Binder | binding result (Livin-β) | binding result (c-IAP-1) | binding result (c-IAP-2) | binding result (XIAP) | binding result (Survivin)
B1 | binds | no binding | no binding | no binding | no binding
B2 | binds | no binding | no binding | no binding | no binding
B3 | binds | no binding | no binding | no binding | no binding
B4 | – | no binding | no binding | no binding | no binding
B5 | binds | no binding | no binding | no binding | no binding
B6 | binds | no binding | no binding | no binding | no binding
B7 | binds | no binding | no binding | binds | no binding
B8 | binds | no binding | no binding | no binding | no binding
B9 | binds | no binding | no binding | no binding | no binding
B10 | binds | no binding | no binding | no binding | no binding
B11 | binds | no binding | no binding | no binding | no binding
